In this assay the target is T1, His-RCC2 (human, UniProt Q9P258 1-522).
T1 construct: Regulator of chromosome condensation 2 (RCC2), human, full length, cloned by PCR from pSA-RCC2 into pET-28a; pET-28a (His-tag vector, Novagen); also called regulator of chromosome condensation 2; telophase disc protein of 60 kDa; source: Escherichia coli BL21, purified
As to the kind of experiment: pull-down; GST pull-down with purified GST, GST-NudCL2 and His-RCC2; incubated in PBS at 4°C for 4 h, then glutathione-agarose beads for 2 h; Western blot. The note with it: both partners purified. (In general: In western blotting, separated proteins are transferred to a membrane and probed.)

T1 sequence (Q9P258 whole entry): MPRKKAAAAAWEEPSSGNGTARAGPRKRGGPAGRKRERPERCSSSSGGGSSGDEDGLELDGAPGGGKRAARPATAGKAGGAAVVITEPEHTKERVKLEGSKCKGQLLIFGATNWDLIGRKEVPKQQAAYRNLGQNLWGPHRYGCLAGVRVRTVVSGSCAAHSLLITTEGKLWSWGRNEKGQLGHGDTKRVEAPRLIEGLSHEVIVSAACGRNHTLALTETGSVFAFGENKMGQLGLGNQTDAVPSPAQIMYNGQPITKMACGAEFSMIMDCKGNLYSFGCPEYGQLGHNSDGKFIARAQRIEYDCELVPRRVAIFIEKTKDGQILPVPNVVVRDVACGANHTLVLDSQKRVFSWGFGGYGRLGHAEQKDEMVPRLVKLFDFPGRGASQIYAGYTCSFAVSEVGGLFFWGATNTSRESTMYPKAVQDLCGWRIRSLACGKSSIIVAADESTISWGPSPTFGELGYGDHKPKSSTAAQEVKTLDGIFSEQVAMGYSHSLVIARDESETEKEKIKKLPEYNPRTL

B1: GST-NudCL2 (natural protein, human, UniProt Q8WVJ2 1-157, looked up)
chain: MSAPFEERSGVVPCGTPWGQWYQTLEEVFIEVQVPPGTRAQDIQCGLQSRHVALSVGGREILKGKLFDSTIADEGTWTLEDRKMVRIVLTKTKRDAANCWTSLLESEYAADPWVQDQMQRKLTLERFQKENPGFDFSGAEISGNYTKGGPDFSNLEK
notes: NudC-like protein 2 (NudCL2, NudCD2), human; Li et al., 2019; Yang et al., 2010, 2019) for the vector; also called NudC-like protein 2; NudC domain-containing protein 2; source: Escherichia coli BL21, purified
B1: the binding result is “binds”.

These data come from publication PMC11443449, “NudCL2 is required for cytokinesis by stabilizing RCC2 with Hsp90 at the midbody” (Protein & Cell, 2024).
